Data from publication PMC2997501, “Different Residues on the Surface of the Methanothermobacter thermautotrophicus MCM Helicase Interact with Single- and Double-Stranded DNA” (Archaea, 2010).
Substitutions are numbered along the chain they refer to.

Columns and labels:
Assay in all cases: filter binding; 10 mM Mg2+, no ATP; better than wild-type; 25 mM Hepes-NaOH pH 7.5, 2 mM DTT, 10 mM MgCl2, 100 ug/ml BSA, 50 fmol 32P-DNA in 20 ul, 10/30/90 nM MCM monomer (25 nM for the ATP test), 60 C, 10 min; nitrocellulose filter washed with 20 mM Tris-HCl pH 7.5
Details in all cases: protein: recombinant; tags: C-terminal His6; chain copies: 6; label: 32P (T4 PNK, 5' end)
[1] = biological target: T1, MCM PG210,211GA (Methanothermobacter thermautotrophicus, UniProt O27798 1-666, P210G;G211A)
T1 sequence: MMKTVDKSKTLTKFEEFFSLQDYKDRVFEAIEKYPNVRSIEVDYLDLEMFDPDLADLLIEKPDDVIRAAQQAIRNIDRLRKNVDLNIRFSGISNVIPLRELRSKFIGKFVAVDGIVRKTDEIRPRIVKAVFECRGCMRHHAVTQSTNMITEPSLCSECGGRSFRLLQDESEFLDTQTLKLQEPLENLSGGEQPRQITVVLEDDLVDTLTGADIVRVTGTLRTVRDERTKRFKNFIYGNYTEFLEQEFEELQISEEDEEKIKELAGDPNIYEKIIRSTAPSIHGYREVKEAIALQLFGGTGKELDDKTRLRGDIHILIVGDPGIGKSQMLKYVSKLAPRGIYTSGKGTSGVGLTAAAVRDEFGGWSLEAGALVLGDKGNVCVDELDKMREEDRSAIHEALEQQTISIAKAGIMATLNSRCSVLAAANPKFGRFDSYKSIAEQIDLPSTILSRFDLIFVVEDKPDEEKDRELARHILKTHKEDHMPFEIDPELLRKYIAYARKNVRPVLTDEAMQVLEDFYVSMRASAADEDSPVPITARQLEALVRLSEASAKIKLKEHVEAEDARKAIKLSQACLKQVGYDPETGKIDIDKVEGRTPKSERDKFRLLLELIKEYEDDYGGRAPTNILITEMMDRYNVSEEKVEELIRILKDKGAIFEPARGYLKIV

[2] = biological target: T2, MCM P210G (Methanothermobacter thermautotrophicus, UniProt O27798 1-666, P210G)
T2 sequence: T1 sequence with A211G

[3] = biological target: T3, MCM G211A (Methanothermobacter thermautotrophicus, UniProt O27798 1-666, G211A)
T3 sequence: T1 sequence with G210P

Measured: binding result

GCAGATAACAGTTGTCCTGGAGAACGACCTGGTTGACACCCTCACACCC (ssDNA) [49-mer ssDNA]
binds: all assays above
